± gives the standard deviation of the averaged measurements.
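Further: ATP exposure 15 min at 22 °C before imaging.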

The series has as its system ATP. Description: switch fluorescence ratio, 500 uM ATP over buffer (Cy3 cluster intensity, sum of 5 cycles each) (fold (ratio)); higher = stronger signal-on switching upon ATP binding; sequences stand for … in TCGTCGGCAGCGTCAGATGTGTATAAGAGACAGTTTTTTTTTTTTTTTTTTTTTTTTT…TC. The conditions noted are these: aptamer strand: ATP DNA aptamer (quencher-CACCTGGGGGAGTATTGCGGAGGAAGG + anchor), 100 nM annealed; ATP concentration: 500 uM. The method in brief:
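The fluorescence ratio divides summed target-cycle Cy3 intensity by summed buffer-cycle Cy3 intensity for each cluster and is averaged per switch-domain sequence. Cy3-labelled switching-strand clusters on a modified Illumina MiSeq flow-cell were annealed to 100 nM quencher-labelled ATP aptamer, then imaged in selection buffer and again after 15 min with 500 uM ATP at 22 °C. Five such cycles were run, with NaOH stripping and re-annealing between them, and clusters outside 100-1000 RFU were excluded.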
For AGTTTGGGTC, the switch fluorescence ratio stood at 0.984 ± 0.057.

Consider GGTTACCTTC, for which the switch fluorescence ratio came to 1.356 ± 0.0068.

Regarding GCTAACATTT, the switch fluorescence ratio was 0.974 ± 0.029.

As for AATTATGTCA, the switch fluorescence ratio is 1.01 ± 0.022.

ATGGTCGCGC: the switch fluorescence ratio was 0.993 ± 0.04.

In the case of TTAAGCGAAG, the switch fluorescence ratio stood at 0.953 ± 0.029.

Turning to AGAGTTAATG, the switch fluorescence ratio was determined as 0.968 ± 0.011.

AGGGGGTAAG: the switch fluorescence ratio was determined as 0.988 ± 0.028.

On to TTTTATGGGC, for which the switch fluorescence ratio came out at 1.01 ± 0.025.

GGGGCGTGCA: the switch fluorescence ratio turned out to be 1.03 ± 0.034.

As for AGGGGGCGGC, the switch fluorescence ratio worked out at 0.995 ± 0.031.

Regarding ATTTGAACAG, the switch fluorescence ratio came out at 0.978 ± 0.015.

Take TCGTGGCATA: the switch fluorescence ratio amounted to 1.11 ± 0.044.

As to CATTTGATTG, the switch fluorescence ratio was found to be 0.988 ± 0.013.

Regarding TTAGTTTTCG, the switch fluorescence ratio amounted to 1.01 ± 0.02.

In the case of GCGGTGGGGT, the switch fluorescence ratio was determined as 1.01 ± 0.018.

With GATTTTGTTC, the switch fluorescence ratio is 1.03 ± 0.02.

Consider TGATATCAAG, for which the switch fluorescence ratio worked out at 0.979 ± 0.013.

As to TGATGTAACG, the switch fluorescence ratio turned out to be 1.012 ± 0.0082.

In the case of TGGGATAATG, the switch fluorescence ratio turned out to be 1.012 ± 0.0042.

Consider GCAGCACGCA, for which the switch fluorescence ratio worked out at 1.03 ± 0.032.

As to GAAGAACGAA, the switch fluorescence ratio amounted to 1.022 ± 0.004.

In the case of TTCCGTCACG, the switch fluorescence ratio stood at 1.08 ± 0.043.

With TTGATTGGGC, the switch fluorescence ratio amounted to 0.989 ± 0.025.

Turning to TTGTTCCGAT, the switch fluorescence ratio was determined as 1.02 ± 0.032.

With GGTTTACGGA, the switch fluorescence ratio turned out to be 0.964 ± 0.01.

Take CCGGATTATG: the switch fluorescence ratio amounted to 1.05 ± 0.016.

In the case of ATGCAAGGCA, the switch fluorescence ratio came out at 1.02 ± 0.04.

With AGTTATTGAG, the switch fluorescence ratio is 0.9991 ± 0.0043.

On to CAAATGTTAT, for which the switch fluorescence ratio turned out to be 1.02 ± 0.0088.

On to GGGGTTTATG, for which the switch fluorescence ratio was found to be 0.975 ± 0.028.

On to TAATTTTGTG, for which the switch fluorescence ratio was 0.975 ± 0.044.

GAAGGGAATG: the switch fluorescence ratio turned out to be 1.01 ± 0.017.

As for AGCTAGCAGG, the switch fluorescence ratio was 0.974 ± 0.039.

For CGGACGAAAG, the switch fluorescence ratio was 1.02 ± 0.048.

On to CAAATCAGGA, for which the switch fluorescence ratio was 1 ± 0.038.

As to TATTTTTGCT, the switch fluorescence ratio is 0.981 ± 0.032.

TGAGGTGTAT: the switch fluorescence ratio was 0.98719 ± 0.00023.

In the case of TGGTGTTTTG, the switch fluorescence ratio turned out to be 0.999 ± 0.031.

On to GATTGGATCG, for which the switch fluorescence ratio came out at 0.9904 ± 0.0051.

In the case of TGTTGCCAAT, the switch fluorescence ratio was 1.01 ± 0.029.

ATTGGGCTGC: the switch fluorescence ratio is 0.977 ± 0.01.

On to GGTCTTTTGT, for which the switch fluorescence ratio came out at 0.998 ± 0.042.

Consider GACCTTTATA, for which the switch fluorescence ratio stood at 0.9914 ± 0.0062.

GTGGGGGTGT: the switch fluorescence ratio was 1.05 ± 0.055.

Turning to TTTTAGTTGG, the switch fluorescence ratio was found to be 0.954 ± 0.038.

With AGGGGCAGTA, the switch fluorescence ratio is 0.993 ± 0.032.

Regarding CTAACGGGCT, the switch fluorescence ratio was 0.995 ± 0.058.

Consider TTCGGAGTTA, for which the switch fluorescence ratio came out at 1.09 ± 0.12.

Consider GTGTTGATTT, for which the switch fluorescence ratio worked out at 0.9625 ± 0.0065.

With GCTGGGGCTT, the switch fluorescence ratio came out at 0.991 ± 0.014.

On to ATGTCATTGG, for which the switch fluorescence ratio is 1.01 ± 0.024.

In the case of AGTAAAAAAA, the switch fluorescence ratio was found to be 0.987 ± 0.033.

Regarding GGAATCTTTT, the switch fluorescence ratio was determined as 1.08 ± 0.085.

Consider GAGTCATGAG, for which the switch fluorescence ratio was found to be 1.06 ± 0.049.

Consider CTAGTCAAGA, for which the switch fluorescence ratio stood at 1.027 ± 0.0066.

Consider TTTAGTTTGT, for which the switch fluorescence ratio is 0.99 ± 0.036.

As to CCTGGGCCGG, the switch fluorescence ratio came to 1.06 ± 0.058.

As for GGGCGAGGGG, the switch fluorescence ratio is 1.01 ± 0.026.

As for TCAAGTATCA, the switch fluorescence ratio amounted to 1.02 ± 0.02.

TGGGCTCCGG: the switch fluorescence ratio was determined as 1 ± 0.031.

Regarding CATGGCCTCT, the switch fluorescence ratio is 0.987 ± 0.034.

On to ATCGAGCATG, for which the switch fluorescence ratio is 1.03 ± 0.051.

On to GTTATTCCGG, for which the switch fluorescence ratio is 1.038 ± 0.0043.

For TAATTTCTGG, the switch fluorescence ratio came to 0.9896 ± 0.0085.

As to TGGTAGTAGG, the switch fluorescence ratio amounted to 0.995 ± 0.017.

Turning to ATTTCGCCCG, the switch fluorescence ratio was 1.07 ± 0.037.

As to AGGGGTACTG, the switch fluorescence ratio was 1.01 ± 0.099.

As to TAGTTTGAAC, the switch fluorescence ratio was 1.01 ± 0.05.

On to TTGTTAGGTT, for which the switch fluorescence ratio was 1.06 ± 0.13.

Turning to TGGGGATCGA, the switch fluorescence ratio turned out to be 1.04 ± 0.011.

As for AGTATTTTTG, the switch fluorescence ratio was 1.01 ± 0.032.

Regarding ATAGTCCCTA, the switch fluorescence ratio is 1.01 ± 0.0019.

Take TGCATGTTTG: the switch fluorescence ratio was 0.975 ± 0.056.

With TAGTTATTGA, the switch fluorescence ratio stood at 1.01 ± 0.038.

Consider CTAAATATAT, for which the switch fluorescence ratio came out at 1.03 ± 0.013.

For GACGTCCCAG, the switch fluorescence ratio was 0.966 ± 0.061.

In the case of CGGTTAAGGG, the switch fluorescence ratio stood at 0.982 ± 0.038.

Values taken from the supplement of paper PMC10126150.
